# Experimental data: paper PMC7443878 (Proceedings of the National Academy of Sciences of the …, 2020)
# B1: His-MBP-RIPK3 (388–514) (domain or fragment)
# chain: SSDSMAQPPQTPETSTFRNQMPSPTSTGTPSPGPRGNQGAERQGMNWSCRTPEPNPVTGRPLVNIYNCSGVQVGDNNYLTMQQTTALPTWGLAPSGKGRGLQHPPPVGSQEGPKDPEAWSRPQGWYN
# B2: recombinant MBP-RIPK1 RHIM domain (496–583) (domain or fragment)
# chain: HMPSLHNIPVPETNYLGNTPTMPFSSLPPTDESIKYTIYNSTGIQIGAYNYMEIGGTSSSLLDSTNTNFKEEPAAKYQAIFDNTTSLT
# Tests used:
# [1] = target: MBP-MYC (1–144) (UniProt P01106-1 1-144); assay: pull-down
# [2] = target: B1; assay: pull-down
# Sequence of MBP-MYC (1–144) (P01106 16-159): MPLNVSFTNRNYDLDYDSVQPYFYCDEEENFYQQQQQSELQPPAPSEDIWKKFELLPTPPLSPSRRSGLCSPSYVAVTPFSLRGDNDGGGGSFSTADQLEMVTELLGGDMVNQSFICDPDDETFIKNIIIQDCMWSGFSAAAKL
binding result [1],binding result [2],Binder
binds,,B1
,binds,B2
